The text below walks through data of patent US20240190946A1 (AUGMENTA BIOWORKS, published 2024).

By Kd is commonly meant a measure of binding affinity in units of concentration. Read a high Kd as lower affinity.

Experiment [1] addresses T1, Sino CoV2 S2 (spike protein 2) (SARS-COV-2, UniProt P0DTC2 686-1213).
T1 construct: domain: S2 (spike protein 2)
Briefly: Carterra LSA.

In experiment [2] the target is T2, Sino CoV2 RBD (Receptor Binding Domain) (SARS-COV-2, UniProt P0DTC2 319-541). Briefly: Carterra LSA.
Another experiment addresses T3, Sino SARS1 S1 (SARS1, UniProt P59594 14-667).
T3 construct: domain: S1
Briefly: Carterra LSA.

Experiment [3] has as its target SARS-COV-2 spike (1+2) protein on pseudotyped lentivirus (SARS-COV-2, UniProt P0DTC2 14-1273). The experiment in a line: cell-based or functional assay.
The target of experiment [4] is T2, Sino CoV2 RBD (Receptor Binding Domain). Briefly: ForteBio; ForteBio.
For experiment [5], the target named is T1, Sino CoV2 S2 (spike protein 2). Briefly: Carterra LSA; Carterra LSA.
Experiment [6] addresses T2, Sino CoV2 RBD (Receptor Binding Domain). The experiment in a line: Carterra LSA; Carterra LSA.
Experiment [7] deals with T1, Sino CoV2 S2 (spike protein 2). Briefly: ForteBio; ForteBio. For orientation: In BLI a coated tip is dipped into the sample, and binding shifts an interference pattern.
The next experiment has as its target T4, NAC CoV2 S1 (SARS-COV-2, UniProt P0DTC2 14-674).
T4 construct: domain: S1
Briefly: instrument not stated.

Experiment [8] addresses T2, Sino CoV2 RBD (Receptor Binding Domain). The experiment in a line: instrument not stated.

B1: SC2 antibody 3947 (antibody, V domains shown)
VH: QLQLQESGSGLVKPSQTLSLTCAVSGGSVSSGGYSWSWIRQPPGKGLEWIGYIYDSGITSYNPSLKSRLTISIDRSKNQFSLGLSSVTAADTAVYYCARVRRNTSGSFSTGHFDYWGQGTLVTVSS
VL: QSVLTQPPSVSASPGQTVTISCSGSTSNIGGNYVSWYQHLPGTAPKLLIYDSNKRPSGIPDRFSGSKSGTSATLGITGLQTEDEADYYCGTWDYRLSGAVFGGGTKLTVL
notes: also called Anti-SARS-COV-2 antibody 3947
The molecule B1 came in with a dissociation constant Kd in [1] of 25 nM.

B2: SC2 antibody 4083 (antibody, V domains shown)
VH: QLQLQESGSGLVKPSQTLSLTCAVSGGSVSSGGYSWSWIRQPPGKGLEWIGYIYDSGITSYNPSLKSRLTISIDRSKNQFSLGLSSVTAADTAVYYCARVRRNTSGSFSTGHFDYWGQGTLVTVSS
VL: QSVLTQPPSVSAVPGQKVTISCSGNNSNIGNNLVSWYQQLPGTAPKLLIYNNNRRPSGIPDRFSGSKSGTSATLGITGLQTGDEAAYYCAARDSSLSAVVFGGGTKLTVL
notes: also called Anti-SARS-COV-2 antibody 4083
In experiment [1], B2 came in with a Kd of 41 nM.

B3: SC2 antibody 3969 (antibody, V domains shown)
VH: QVQLVESGGGVVQPGRSLRLSCAASGFTFSSYGMHWVRQAPGKGLEWVAVISYDGSNKYYADSVKGRFTISRDNSKNTLYLQMNSLRAEDTAVYYCAKGVGDYAVWGQGTLVTVSS
VL: QSALTQPASVSGSPGQSITISCTGTNSDIGGYDYVSWYQQHPGKAPKLMIFDVNNRPSGVSNRFSGSKSGNTASLTISELQSADEADYFCSSFSTRNSLVVFGGGTKLTVL
notes: also called Anti-SARS-COV-2 antibody 3969
In the case of B3, the dissociation constant (Kd) was 105 nM in experiment [2] and 28 nM with Sino SARS1 S1.

B4: SC2 antibody 3387 (antibody, V domains shown)
VH: QVQLVQSGAEVMQVGASVKVSCKASGYTFTSYGISWVRQAPGQGLEWMGWINTYNGNTNYAQKLQGRVTMTTDTSTTTAYMELRSLRSDDTAVYYCARVAVGYCSGGSCYYFDYWGQGTLVTVSS
VL: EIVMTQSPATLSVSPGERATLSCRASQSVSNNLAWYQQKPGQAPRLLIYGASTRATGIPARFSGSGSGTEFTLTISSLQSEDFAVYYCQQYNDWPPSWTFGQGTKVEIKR
In the case of B4, the “neutralization of infection of HEK293 cells by spike-pseudotyped lentivirus” value (shortened to “neutralization”) in experiment [3] is roughly 45%.

B5: anti-SARS-COV-2 (SC2) antibody 3417 (antibody, V domains shown)
VH: QVQLQESGPGLLKPSQTLSLTCTVSGVSIRNSNYFWNWIRRPAGKGLEWIGRMHSGGTTNYNPSLKSRVTVSSDAARNQFSLELTSVTAADTAVYYCARDDPLNRFAAFQIWGRGTLVTVSS
VL: QSVLTQPPSVSAAPGQKVTISCSGSSSNIGNKYISWYQQLPGTAPKLLIYDNNKRPSGIPDRFSGSKSGTSATLGITGLQTGDEADYYCGTWDSSLSVFYVFGTGTKVTVLG
notes: also called SC2 Ab 3417
For the molecule B5, the values for the dissociation constant (Kd) in experiment [4], in experiment [5] and in [6] were less than 0.001 nM, 63 nM and 7.2 nM, respectively. The “neutralization” value in [3] is roughly 70%.

B6: SC2 antibody 3388 (antibody, V domains shown)
VH: QVQLVESGGGVVQPGRSLRLSCAASGFTFSSYAMHWVRQAPGKGLEWVAVISYDGSNKYYADSVKGRFTISRDNSKNTLYLQMNSLRAEDTAVYYCAREGNIVATISLDYWGQGTLVTVSS
VL: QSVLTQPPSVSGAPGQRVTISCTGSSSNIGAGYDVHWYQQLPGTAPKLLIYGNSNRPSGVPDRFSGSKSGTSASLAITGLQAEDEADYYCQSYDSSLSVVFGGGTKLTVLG
notes: also called Anti-SARS-COV-2 antibody 3388
Molecule B6 yielded a dissociation constant (Kd) in experiment [5] of 10 nM.

B7: SC2 antibody 3396 (antibody, V domains shown)
VH: GVQLVESGGGLVQPGRSLRVSCAASGFTFADYAMHWVRQAPGKGLEWVSGISWNSGNIAYADSVKGRFTISRDNAKNSLYLQMDSLRPDDTALYYCVKASTLYYYFYMDVWGKGTTVTVSS
VL: QSALTQPPSASGSPGQSVTISCTGTSSDVGGYDYVSWYQQHPGKAPKFMIYEVSKRPSGVPDRFSGSKSGNTASLTVSGLQAEDEADYYCCSYAGSNNYVFGTGTKVTVLG
notes: also called Anti-SARS-COV-2 antibody 3396
With B7, the Kd in experiment [7] was 122 nM; in [4], 22 nM. Further, the “neutralization” value in [3] was roughly 50%.

B8: SC2 antibody 3908 (antibody, V domains shown)
VH: EVQLVESRGGLVQPGGSLRLSCAATGFTLSSFDMHWVRQATGKGLEWVSAIGTAGDTYYPGSVKGRFTISRENAKNSLYLQMNSLRAGDTAVYYCARGTWLRDYNFWSGYNYYFDYWGQGTLVTVSS
VL: QSALTQPPSASGSPGQSVTISCTGTSSDVGGYIYVSWYQQHPGKAPKLIIYEVSKRPSGVPDRFSGSKSGNTASLTVSGLQAEDEADYYCSSYADSNNYVFGSGTRVTVLG
notes: also called Anti-SARS-COV-2 antibody 3908
As for B8, binding in [7] was characterised by a dissociation constant (Kd) of 74 nM.

B9: SC2 antibody 3705 (scFv)
scFv: LEIVMTQSPATLSVSPGERATLSCRASQSVSNNLAWYQQKPGQAPRLLIYGASTRATGIPARFSGSGSGTEFTLTISSLQSEDFAVYYCQQYNDWPPSWTFGQGTKVEIKGGGGSGGGGSGGGGSQVQLVQSGAEVMQVGASVKVSCKASGYTFTSYGISWVRQAPGQGLEWMGWINTYNGNTNYAQKLQGRVTMTTDTSTTTAYMELRSLRSDDTAVYYCARVAVGYCSGGSCYYFDYWGQGTLVTVSSGGGGSGGQHHHHHHGAEQKLISEEDLGSGKPIPNPLLGLDSTS
notes: also called Anti-SARS-COV-2 antibody 3705
For B9, the equilibrium dissociation constant (Kd) was 57 nM with NAC CoV2 S1 and 1.3 nM in experiment [8]. In [3], the “neutralization” value came to 100%.
